Assay results reported in US20250011456A1, “ANTIBODIES AGAINST CD14 AND USES THEREOF” (Villanelle Life Science Inc, priority 2023, published 2025).
Several values for one entry are separate records, joined by “and”; a condition that tells them apart may be missing. Equal values may be shown once.

How the values were obtained:
[1] = target: T1, recombinant human CD14 (B294801, histidine tagged) (Homo sapiens, UniProt P08571); experiment: Biacore 8K kinetic and affinity test of humanized antibodies (Example 8); assay type: binding; settings: Biacore 8K, analyte B294801 0.78125-25 nM, capture 1 μg/mL
T1 construct: His; purchased Shanghai BaiYing Biotechnology Co., Ltd B294801 (Batch number 20200518A22)
T1 sequence (P08571 20-345): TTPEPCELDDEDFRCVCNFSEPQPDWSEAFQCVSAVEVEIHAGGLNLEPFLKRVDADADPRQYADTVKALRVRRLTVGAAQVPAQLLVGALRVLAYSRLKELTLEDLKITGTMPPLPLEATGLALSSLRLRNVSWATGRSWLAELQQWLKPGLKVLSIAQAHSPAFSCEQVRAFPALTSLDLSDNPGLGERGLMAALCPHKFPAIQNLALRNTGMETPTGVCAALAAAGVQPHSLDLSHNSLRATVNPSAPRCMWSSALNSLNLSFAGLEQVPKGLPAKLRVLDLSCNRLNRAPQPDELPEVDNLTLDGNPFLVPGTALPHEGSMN
Protocol: Experimental reagents and consumables included Protein A chip (Cytiva, 29127556). Main instruments and equipment included Biacore 8K (Cytiva), shaker (Taicang Huamei), ELISA system (Molecular Devices), centrifuge (Baiyang), ultrapure water system (Millipore), and thermostatic incubator (BLUE PARD).
The antigen used for the binding affinity measurements is B294801. This antigen is a recombinant human CD14 antigen that is histidine tagged and has a molecular weight of 36 kDa. B294801 was purchased from Shanghai BaiYing Biotechnology Co., Ltd (name: Recombinant Human CD14/His Protein; Batch number 20200518A22). D6DD3D001 is a mouse antibody, and D6DD3D002-D6DD3D0016 are humanized antibodies. The antibodies are recombinant, human (hFc Tag). Selected parameters of the experimental samples are shown in Table 8-1, with MW referring to molecular weight in kiloDaltons (kDa).
The Biacore 8K platform was used to test the kinetic and affinity properties of the antibody. The operation was carried out according to the system instructions and indications.
The equilibrium dissociation constant (KD) reflects the affinity of the antibody to the target, with a smaller value indicating a stronger affinity. KD (in units of molarity) is determined by the ratio of the dissociation rate constant (koff) and the association rate constant (kon), that is, KD=Koff/kon.
15 humanized antibodies (numbered D6DD3D002-D6DD3D0016) and 1 mouse antibody (number D6DD3D001) were tested. For the experiments, the analyte solution comprises the B294801 antigen with an analyte concentration of 0.78125 nM, 1.5625 nM, 3.125 nM, 6.25 nM, 12.5 nM, and 25 nM. The capture concentration was 1 μg/mL. In Table 8-3, the change factor is the ratio of the equilibrium dissociation constant KD of the humanized to mouse antibody, and reflects the change in affinity after humanization.

[2] = target: T2, human CD14 antigen (B294801, histidine tagged) (Homo sapiens, UniProt P08571); experiment: Biacore 8K kinetic and affinity test of antibodies without PTM sites (Example 9); assay type: binding; settings: Biacore 8K, analyte B294801 0.1953125-25 nM, capture conc. 1 μg/mL
T2 construct: His; purchased Shanghai BaiYing Biotechnology Co., Ltd B294801 (Batch number 20200518A22)
T2 sequence (P08571 20-345): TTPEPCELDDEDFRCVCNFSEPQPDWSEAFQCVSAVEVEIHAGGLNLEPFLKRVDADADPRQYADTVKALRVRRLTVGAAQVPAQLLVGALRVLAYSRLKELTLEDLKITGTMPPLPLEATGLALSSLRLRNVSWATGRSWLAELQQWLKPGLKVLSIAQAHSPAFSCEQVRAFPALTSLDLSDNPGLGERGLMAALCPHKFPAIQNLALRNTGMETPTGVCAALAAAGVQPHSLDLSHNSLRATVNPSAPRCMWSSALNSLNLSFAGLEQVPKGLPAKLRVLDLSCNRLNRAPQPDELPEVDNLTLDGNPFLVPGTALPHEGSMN
Protocol: Experimental reagents and consumables included cell culture fluid, electroporation buffer, CHO cells, 1 mL electroporation cuvette, Protein A chip (Cytiva, 29127556), various sizes of shake flasks, and various sizes of pipettes. Main instruments and equipment included a shaker (Taicang Huamei), centrifuge (Baiyang), ultrapure water system (Millipore), constant temperature incubator (BLUE PARD), electroporator, water bath, Biacore 8K (Cytiva), and ELISA system (Molecular Devices).
The antigen used for the binding affinity measurements is B294801. This antigen is a human CD14 antigen that is histidine tagged. D6DD3D001 is a mouse antibody, and MPDDAD001-MPDDAD005 are humanized antibodies. The antibodies are recombinant, human (hFc Tag). Selected parameters of the experimental samples are shown in Table 9-1, with MW referring to molecular weight in kDa.
The Biacore 8K platform was used to test the kinetic and affinity properties of the antibody, operating according to system instructions and indications.
Results of Affinity Detection. The affinity of the six antibodies was measured at saturation concentration. For the experiments, the analyte solution comprises the B294801 antigen with an analyte concentration of 0.1953125 nM, 0.390625 nM, 0.78125 nM, 1.5625 nM, 3.125 nM, 6.25 nM, 12.5 nM, and 25 nM. Change factor is described above.

[3] = Mouse weight under anti-CD14-IgG1 dosages of Example 7 (PDX mice); assay type: in vivo; settings: per mouse 1-5
Protocol: To evaluate concentrations for the anti-CD14-IgG1 antibody, PDX mice were treated with five different concentrations of the IgG1 antibody over a period of 28 days. For these experiments, drug administration on the PDX mice was performed intravenously on alternating 4 days and 3 days.
The five different concentrations of the anti-CD14-IgG1 antibody tested include 5 mg/kg, 10 mg/kg, 15 mg/kg, 25 mg/kg, and 40 mg/kg. A control regimen was utilized as a comparative example. […] The non-specific IgG1 has no binding affinity to antigen. […] Tumor weight and tumor volume were calculated as described above.

koff (1:1 binding) [1]: 0.000858 s⁻¹ | kon (1:1 binding) [1]: 1.77e+06 M⁻¹ s⁻¹ | Koff [2]: 0.00108 s⁻¹ | kon (1:1 binding) [2]: 1.25e+06 M⁻¹ s⁻¹
B1: D6DD3D001: mouse-derived anti-CD14 IgG1 antibody; VH SEQ ID NO: 1, VL SEQ ID NO: 3, heavy chain SEQ ID NO: 2, light chain SEQ ID NO: 4 (antibody)
heavy: DVQLQQSGPGLVKPSQSLSLTCTVTGYSITSDSAWNWIRQFPGNRLEWMGYISYSGSTSYNPSLKSRISITRDTSKNQFFLQLNSVTTEDTATYYCVRGLRFAYWGQGTLVTVSSPSVFLFPPKPKDTLMISRTPEVTCVVVDVSHEDPEVKFNWYVDGVEVHNAKTKPREEQYNSTYRVVSVLTVLHQDWLNGKEYKCKVSNKALPAPIEKTISKAKGQPREPQVYTLPPSREEMTKNQVSLTCLVKGFYPSDIAVEWESNGQPENNYKTTPPVLDSDGSFFLYSKLTVDKSRWQQGNVFSCSVMHEALHNHYTQKSLSLSPGK
light: DIVLTQSPASLAVSLGQRATISCRASESVDSYVNSFLHWYQQKPGQPPKLLIYRASNLQSGIPARFSGSGSRTDFTLTINPVEADDVATYYCQQSNEDPYTFGGGTKLEIKRTVAAPSVFIFPPSDEQLKSGTASVVCLLNNFYPREAKVQWKVDNALQSGNSQESVTEQDSKDSTYSLSSTLTLSKADYEKHKVYACEVTHQGLSSPVTKSFNRGEC
Mouse Weight ([3]; Day 0, IgG1 (10 mg/kg), 10 mg/kg): 19.83 g and 20.73 g and 20.13 g and 20.77 g and 19.27 g | Mouse Weight ([3]; Day 0, IgG1 (15 mg/kg), 15 mg/kg): 20.37 g and 19.02 g and 20.34 g and 19.62 g and 19.24 g | Mouse Weight ([3]; Day 0, IgG1 (25 mg/kg), 25 mg/kg): 19.63 g and 20.3 g and 19.71 g and 20.07 g and 20.02 g | Mouse Weight ([3]; Day 4, IgG1 (5 mg/kg), 5 mg/kg): 20.33 g and 20.63 g and 19.58 g and 19.86 g and 20.45 g | Mouse Weight ([3]; Day 4, IgG1 (10 mg/kg), 10 mg/kg): 19.89 g and 20.39 g and 19.36 g and 20.74 g and 20.98 g | Mouse Weight ([3]; Day 4, IgG1 (15 mg/kg), 15 mg/kg): 20.83 g and 19.54 g and 20.87 g and 20.44 g and 20.68 g | Mouse Weight ([3]; Day 4, IgG1 (25 mg/kg), 25 mg/kg): 20.75 g and 19.2 g and 20.99 g and 20.16 g and 20.55 g | Mouse Weight ([3]; Day 7, IgG1 (5 mg/kg), 5 mg/kg): 20.95 g and 20.07 g and 20.36 g and 20.83 g and 20.56 g | Mouse Weight ([3]; Day 7, IgG1 (10 mg/kg), 10 mg/kg): 20.81 g and 19.35 g and 19.89 g and 20.23 g and 21.08 g | Mouse Weight ([3]; Day 7, IgG1 (15 mg/kg), 15 mg/kg): 19.65 g and 20.62 g and 20.38 g and 20.56 g and 20.71 g | Mouse Weight ([3]; Day 7, IgG1 (25 mg/kg), 25 mg/kg): 20.86 g and 20.2 g and 20.76 g and 21.38 g and 20.06 g | Mouse Weight ([3]; Day 11, IgG1 (5 mg/kg), 5 mg/kg): 20.85 g and 20.72 g and 20.22 g and 21.21 g and 20.94 g | Mouse Weight ([3]; Day 11, IgG1 (10 mg/kg), 10 mg/kg): 20.77 g and 20.5 g and 20.97 g and 21.03 g and 20.94 g | Mouse Weight ([3]; Day 11, IgG1 (15 mg/kg), 15 mg/kg): 20.35 g and 20.89 g and 21.32 g and 21.08 g and 20.47 g | Mouse Weight ([3]; Day 11, IgG1 (25 mg/kg), 25 mg/kg): 20.11 g and 20.4 g and 19.5 g and 20.84 g and 21.5 g | Mouse Weight ([3]; Day 14, IgG1 (5 mg/kg), 5 mg/kg): 20.75 g and 21.06 g and 20.89 g and 21.69 g and 20.67 g | Mouse Weight ([3]; Day 14, IgG1 (10 mg/kg), 10 mg/kg): 20.15 g and 20.69 g and 21.19 g and 21.53 g and 20.71 g | Mouse Weight ([3]; Day 14, IgG1 (15 mg/kg), 15 mg/kg): 20.47 g and 21.16 g and 21.65 g and 20.87 g and 21.13 g | Mouse Weight ([3]; Day 14, IgG1 (25 mg/kg), 25 mg/kg): 20.13 g and 21.05 g and 20.39 g and 21.39 g and 21.62 g | Mouse Weight ([3]; Day 18, IgG1 (5 mg/kg), 5 mg/kg): 21.11 g and 21.36 g and 20.44 g and 20.69 g and 21.33 g
